From patent publication US20260109763A1 (DENALI THERAPEUTICS, published 2026)
Like-named read-outs stand apart in the source and are kept apart here.

What was measured:
human PILRA G78 on cells [1] = molecular target: T1, human PILRA G78 on cells (human, UniProt Q9UKJ1 20-303); test: cell-based or functional assay
[2] = molecular target: T2, human PILRB extracellular domain (recombinant) (human, UniProt Q9UKJ0 20-191); test: SPR, Biacore 8K, recombinant ECD
T2 construct: also called hPILRB

human PILRA G78 on cells [3] = molecular target: T1, human PILRA G78 on cells; test: flow cytometry on HEK293 cells expressing hPILRA G78
Procedure: Parental HEK293 cells were labeled with NucBlue Live ReadyProbes Reagent for 30 mins. […] Antibody binding to the cells was detected by FACS and median fluorescence intensity (MFI) was derived from data analysis performed with the FLOJO software (FIGS. 1A-1C).

human PILRB on cells [4] = molecular target: T3, human PILRB on cells (human, UniProt Q9UKJ0 20-227); test: flow cytometry (MFI), CHO-K1 cells expressing hPILRB
T3 construct: Expressed on CHO-K1 cells, or together with DAP12 on HEK293 cells (hPILRB-DAP12 OE HEK293); also called hPILRB; hPILRB-DAP12
Procedure: Antibody binding to the cells was detected by FACS and MFI was derived from data analysis performed with the FLOJO software.

human PILRA G78 on cells [5] = molecular target: T1, human PILRA G78 on cells; test: flow cytometry on HEK293 PILRA G78 cells with sialidase treatment
Procedure: (§1) PILRA 78G or PILRA 78R expressing HEK293 cells were treated with SialEXO (Genovis). […] It is a combination of two sialidases acting on α2-3, α2-6 and α2-8 linkages. […] Cells were then washed twice and incubated and stained with NucBlue Live Stain for 30 mins at RT.

human PILRA G78 on cells [6] = molecular target: T1, human PILRA G78 on cells; test: flow cytometry on HEK293 PILRA G78 cells without sialidase treatment
Procedure: as §1

human PILRA R78 on cells [7] = molecular target: T4, human PILRA R78 on cells (human, UniProt Q9UKJ1 20-303); test: flow cytometry on HEK293 PILRA R78 cells with sialidase treatment; with sialidase treatment
T4 construct: also called hPILRA R78; PILRA 78R
Procedure: as §1
(§2) Following the same protocol, sialidase treatment was also performed on HEK cells expressing PILRA R78.

[8] = molecular target: T5, human PILRA G78 extracellular domain (recombinant hPILRA ECD) (human, UniProt Q9UKJ1 20-197); test: SPR, Biacore 8K; antibody captured via anti-human Fab, recombinant ECD injected; 1:1 fit;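 further: CM5 sensor chip, ECD analyte in threefold dilution series at 30 µL/min, 3 min association and 10 min dissociation, kon and koff fitted simultaneously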
T5 construct: also called hPILRA G78
Procedure: (§3) Antibodies were captured on Biacore™ Series S CM5 sensor chips immobilized with mouse anti-human Fab (human Fab capture kit from GE Healthcare) followed by injections of serial 3-fold dilutions of recombinant ECD reagents at a flow rate of 30 μL/min. Each sample was analyzed using a 3-minute association followed by a 10-minute dissociation. After each injection, the sensor chip was regenerated using a 5 0 mM glycine pH2.0 regeneration buffer. A 1:1 Languir model of simultaneous fitting of kₒₙ and koff was used for kinetics analysis.

[9] = molecular target: T6, cynomolgus monkey PILRA extracellular domain (recombinant) (cynomolgus monkey); test: as above
T6 construct: also called cynoPILRA; Cyno PILRA
Procedure: as §3

human PILRA R78 on cells [10] = molecular target: T4, human PILRA R78 on cells; test: flow cytometry on HEK293 PILRA R78 cells without sialidase treatment; without sialidase treatment
Procedure: as §1, §2

[11] = molecular target: T6, cynomolgus monkey PILRA extracellular …; test: SPR, Biacore 8K, recombinant ECD
human PILRB on cells [12] = molecular target: T3, human PILRB on cells; test: flow cytometry, CHO cells expressing hPILRB, MFI as fold over isotype control
[13] = molecular target: T7, cynomolgus monkey PILRA on cells (cynomolgus monkey); test: flow cytometry, CHO cells expressing cynoPILRA, MFI as fold over isotype control
T7 construct: Expressed on CHO-K1 cells; also called cynoPILRA; cyno PILRA

[14] = molecular target: T5, human PILRA G78 extracellular domain …; test: SPR
[15] = molecular target: T8, human PILRA R78 extracellular domain (recombinant) (human, UniProt Q9UKJ1 20-197); test: SPR
T8 construct: also called hPILRA R78

[16] = molecular target: T2, human PILRB extracellular domain …; test: SPR
[17] = molecular target: T6, cynomolgus monkey PILRA extracellular …; test: SPR
human PILRA G78 on cells [18] = molecular target: T1, human PILRA G78 on cells; test: cell-based or functional assay; remark: listed apart in the source
human PILRA R78 on cells [19] = molecular target: T4, human PILRA R78 on cells; test: cell-based or functional assay
human PILRA G78 on cells [20] = molecular target: T1, human PILRA G78 on cells; test: flow cytometry on HEK293 cells expressing hPILRA G78; remark: listed apart in the source
[21] = molecular target: T5, human PILRA G78 extracellular domain …; test: SPR, Biacore 8K; hPILRA ECD; antibody with wild-type Fc
human PILRA G78 on cells [22] = molecular target: T1, human PILRA G78 on cells; test: flow cytometry on PILRA G78 expressing CHO-K1 cells (FIG. 1H)
Procedure: (§4) PILRA G78 or R78 overexpressing HEK293 cells were stained with NucBlue Live cell stain for 30 mins at RT. […] Cell lines were run in duplicate to account for intra-variability, for a total of N=3. The same protocol was used for CHO-K1 cells expressing hPILRA G78.

human PILRA R78 on cells [23] = molecular target: T4, human PILRA R78 on cells; test: flow cytometry on PILRA R78 expressing HEK293 cells (FIG. 1F); HEK293 cells expressing PILRA R78
Procedure: as §4

T4 sequence (Q9UKJ1 20-303 limits assumed): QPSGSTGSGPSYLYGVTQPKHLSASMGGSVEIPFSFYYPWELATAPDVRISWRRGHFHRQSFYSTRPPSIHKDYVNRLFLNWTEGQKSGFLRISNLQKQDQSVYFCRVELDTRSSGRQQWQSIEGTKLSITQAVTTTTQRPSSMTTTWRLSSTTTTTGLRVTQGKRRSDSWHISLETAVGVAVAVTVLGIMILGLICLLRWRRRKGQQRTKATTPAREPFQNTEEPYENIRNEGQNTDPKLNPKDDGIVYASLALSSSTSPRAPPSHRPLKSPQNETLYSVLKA
T2 sequence (Q9UKJ0 20-191 limits assumed): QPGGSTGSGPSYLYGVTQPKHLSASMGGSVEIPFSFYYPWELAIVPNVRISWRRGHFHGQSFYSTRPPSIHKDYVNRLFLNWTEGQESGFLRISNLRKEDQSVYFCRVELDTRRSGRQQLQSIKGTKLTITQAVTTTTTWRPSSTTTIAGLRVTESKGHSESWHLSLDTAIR
T6 sequence (chain, as listed by the source limits assumed): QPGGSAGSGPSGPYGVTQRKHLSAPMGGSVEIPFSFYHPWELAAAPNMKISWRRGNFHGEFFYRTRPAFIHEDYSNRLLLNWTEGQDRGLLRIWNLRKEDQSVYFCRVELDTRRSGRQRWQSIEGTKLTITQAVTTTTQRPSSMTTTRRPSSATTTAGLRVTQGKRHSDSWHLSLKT
T5 sequence (Q9UKJ1 20-197 R78G limits assumed): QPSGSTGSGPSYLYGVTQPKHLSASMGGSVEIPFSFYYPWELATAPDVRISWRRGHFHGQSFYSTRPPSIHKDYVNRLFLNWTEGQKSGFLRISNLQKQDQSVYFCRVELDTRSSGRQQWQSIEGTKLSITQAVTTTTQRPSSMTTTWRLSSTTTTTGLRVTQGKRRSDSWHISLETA
T1 sequence (Q9UKJ1 20-303 R78G limits assumed): as the sequence (Q9UKJ1 20-303 limits assumed) above, with R59G counted along it
T3 sequence (Q9UKJ0 20-227 limits assumed): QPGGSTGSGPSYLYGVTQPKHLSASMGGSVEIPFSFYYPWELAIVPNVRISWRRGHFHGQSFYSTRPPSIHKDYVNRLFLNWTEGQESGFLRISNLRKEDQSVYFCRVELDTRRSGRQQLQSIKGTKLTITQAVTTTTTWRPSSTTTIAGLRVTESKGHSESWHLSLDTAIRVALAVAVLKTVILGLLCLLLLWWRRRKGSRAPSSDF
T8 sequence (Q9UKJ1 20-197 limits assumed): as the sequence (Q9UKJ1 20-197 R78G limits assumed) above, with G59R counted along it
T7 sequence (chain, as listed by the source limits assumed): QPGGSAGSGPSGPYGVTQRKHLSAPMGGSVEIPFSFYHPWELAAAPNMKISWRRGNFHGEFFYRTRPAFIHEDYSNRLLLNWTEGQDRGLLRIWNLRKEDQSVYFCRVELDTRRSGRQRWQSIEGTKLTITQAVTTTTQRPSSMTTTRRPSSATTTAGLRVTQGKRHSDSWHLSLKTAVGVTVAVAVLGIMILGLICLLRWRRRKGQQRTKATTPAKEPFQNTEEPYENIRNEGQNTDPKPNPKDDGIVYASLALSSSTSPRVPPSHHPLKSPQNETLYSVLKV

pSTAT3 Y705 induction, EC50 (nM) (human PILRA G78 on cells [1])	pSTAT3 Y705 induction, Fold Over Background (human PILRA G78 on cells [1]) [fold]	binding result [2]	EC50 (human PILRA G78 on cells [3]) [nM]	binding result (human PILRB on cells [4])	EC50 (human PILRA G78 on cells [5]) [nM]	EC50 (human PILRA G78 on cells [6]) [nM]	EC50 (human PILRA R78 on cells [7]) [nM]	Kd [8] [nM]	Kd [9] [nM]	EC50 (human PILRA R78 on cells [10]) [nM]	Binder	also measured
1.51	15.8	no binding	32.5	no binding (tested: 100 nM)	9.8	17	0.9	0.66	19	1.3	Anti-PILRA antibody clone 5 (antibody, human IgG1, kappa, L234A L235A, V domains shown, also called Ab; Clone 5; Ab.5) VH: QVQLVQSGAEVKKPGASVRVSCKASGYTFIGFYIHWVRQAPGQGLEWMGWINPESGDTTYAQKFQGRVTMTTDTSINTAYMDLNRLRSDDSAVYFCARGNWNFPDTFDFWGQGTMVIVSS VL: DIQMTQSPSSLSASVGDRVTITCRSSQSISIYLNWHQQIPGKAPKLLIYVASSLQSGIPSRFSGRGSGTEFTLTISSLQPEDFATYYCQQSYSAPFTFGPGTKVDIKR	–
–	–	no binding	–	–	–	–	–	–	–	–	Reference Antibody #1 (antibody, human IgG1, kappa, L234A L235A, V domains shown) VH: QVTLQESGPGILQPSQTLSLTCSFSGFSLSTFGMGVGWIRQPSGKGLEWLAHIWWDDDKYYNPALKSRLTISKDTSKNQVFLKIASVDTADIATYYCARVEDYGNPFDYWGQGTTLTVSS VL: DIQMNQSPSSLSASLGDTITITCHASQNIHVWLNWYQQKPGNIPKLLIYKASNLHTGVPSRFSGSGSGTGFTVTISSLQPEDIATYYCQQGQSYPLTFGAGTKLELKR	binding result [11]: no binding; binding result (human PILRB on cells [12]): no binding (tested: 100 nM); binding result [13]: no binding (tested: 100 nM)
1.98	14.7	no binding	24.9	no binding (tested: 100 nM)	–	–	–	8.3	7.4	–	Anti-PILRA antibody clone 4 (antibody, human IgG1, kappa, L234A L235A, V domains shown, also called Ab; Clone 4; Ab.4) VH: EVQLVESGGGLVQPGRSLRLSCAASGFTFDDYAIHWVRQAPGKGLEWVSGMSWNSGSIGYGDSVKGRFTISRDNAKNSLYLQMNSLRAEDTAFYYCAKDKSIGAAGRFDSWGQGTLVTVSS VL: not shown	–
5.66	16.2	no binding	13.8	no binding (tested: 100 nM)	1.8	6.8	5.6	2.3	0.91	14	Anti-PILRA antibody clone 1 (antibody, V domains shown) VH: EVQLVESGGGLVQPGRSLRLSCAVSGFTFDDYAMHWVRQAPGKGLEWVSGFSWNSGSIGYPDSVKGRFTISRDNAKNSLYLQMNSLRAEDTAFYYCAKDKSISAAGRFDYWGQGTLVTVSS VL: DIQMTQSPSSLSASVGDRVTITCQASRRINNYLNWYQQKPGKAPKLLIYDASNLETGVPSRFTGSGSGTDFTLTISSLQPEDIATYYCQQYDNLPLTFGGGTKIKIK	–
–	–	–	–	–	–	–	–	–	–	–	Anti-PILRA antibody clone 23 (antibody, V domains shown, Humanized; also called Ab.23) VH: EVQLVQSGAEVKKPGASVKVSCKASGYTFTEYYMYWVRQAPGQGLELIGRIDPEDGGTDYVEKFKNRATLTADTSTSTAYLELSSLRSEDTAVYFCASTIRGTVFVYWGQGTLVTVSS VL: DIQMTQSPSSLSASVGDRVTITCRPSEDIYNGLAWYQQKPGKAPKLLIYNANSLHTGVPSRFSGSGSGTDYTLTISSLQPEDFATYYCQQYYDYPLTFGQGTKVEIK	Kd [14]: 2.8 nM; Kd [15]: 47 nM; Kd [16]: 117 nM; Kd [17]: 7.3 nM; pSTAT3 S727 induction, EC50 (nM) (human PILRA G78 on cells [18]): 20.1 nM; pSTAT3 S727 induction, Fold Over Background (human PILRA G78 on cells [18]): 23.6 fold; pSTAT3 Y705 induction, EC50 (nM) (human PILRA G78 on cells [18]): 12.2 nM; pSTAT3 Y705 induction, Fold Over Background (human PILRA G78 on cells [18]): 31.4 fold; pSTAT3 S727 induction, EC50 (nM) (human PILRA R78 on cells [19]): 14.6 nM; pSTAT3 S727 induction, Fold Over Background (human PILRA R78 on cells [19]): 28.5 fold; pSTAT3 Y705 induction, EC50 (nM) (human PILRA R78 on cells [19]): 7.55 nM; pSTAT3 Y705 induction, Fold Over Background (human PILRA R78 on cells [19]): 36.2 fold; EC50 (human PILRA G78 on cells [20]): 21.4 nM; Kd [21]: 0.495 nM; EC50 (human PILRA G78 on cells [22]): 18.2 nM; EC50 (human PILRA R78 on cells [23]): 3.7 nM
